Measurements published in patent US20140315822A1 (INSTITUT PASTEUR, published 2014).
Read-outs that look alike come from different tables or passages of the source.

B1: PDZ domain of the human PTPN4 protein (other)
chain: SSPEKPTPNGGIPHDNLVLIRMKPDENGRFGFNVKGGYDQKMPVIVSRVAPGTPADLCVPRLNEGDQVVLINGRDIAEHTHDQVVLFIKASCERHSGELMLLVRPN
notes: domain: PDZ domain
B2: PDZ domain of the human MAST2 protein (other)
chain: MRPPIIIHRAGKKYGFTLRAIRVYMGDSDVYTVHHMVWHVEDGGPASEAGLRQGDLITHVNGEPVHGLVHTEVVELILKSGNKVAISTTPLEN

Assays:
VIR13 (Neurovita 1) [1] = molecular target: VIR13 (Neurovita 1) (rabies virus); assay: method not restated in the table; ITC per paragraph 50
VIR13 (Neurovita 1) [2] = molecular target: VIR13 (Neurovita 1) (rabies virus)

Binder | Kd (VIR13 (Neurovita 1) [1]) [µM] | Kd (VIR13 (Neurovita 1) [2]) [nM]
B1 | 560 | 
B2 |  | 1260
